Source: paper PMC4888247
Several values for one entry are separate records, joined by “and”; a condition that tells them apart may be missing. Equal entries are not always repeated.

Legend:
[1] = molecular target: human S100A8 (human) (UniProt P05109); assay: crystal structure; crystal form 1, P212121, 2.2 A; Zn2+/Ca2+-bound (3 mM ZnCl2 added); 0.2 M ammonium acetate, 0.1 M Na acetate pH 4.0, 15 % PEG 3350, 0.4 % 2,2,2-trifluoroethanol; eight molecules per asymmetric unit
[2] = molecular target: human S100A8 (human) (UniProt P05109); assay: SEC; 24 ml Superdex 75, 20 mM HEPES pH 7.5, 200 mM NaCl, 5 mM CaCl2 (calcium only, no zinc); sizes from a calibration curve with protein standards
[3] = molecular target: human S100A8 (human) (UniProt P05109); assay: crystal structure; crystal form 2, C2221, 2.1 A; Zn2+/Ca2+-bound with a (Zn)2-cacodylate complex; 5 mM ZnCl2, 0.1 M Na cacodylate pH 6.5, 8 % PEG 8000; four molecules per asymmetric unit

## human S100A8 (from UniProt P05109 2-93) (natural protein)
[1]
  stoichiometry N: 4
[2]
  stoichiometry N: 4 and 2
[3]
  stoichiometry N: 4
